Reference: article PMC9543379, “Dihydroxy‐Acid Dehydratases From Pathogenic Bacteria: Emerging Drug Targets to Combat Antibiotic Resistance” (Chemistry (Weinheim an Der Bergstrasse, Germany), 2022)

What was measured:
CC(C)(O)C(O)C(=O)O [1] = system: T1, CC(C)(O)C(O)C(=O)O; experiment: Michaelis-Menten kinetics (Km), DNPH assay; format: biochemical, Campylobacter jejuni; details: [4Fe-4S] cluster, Mg2+ active site
T1 construct: hexa-histidine tag at the N-terminal, pET-28a

CC(C)(O)C(O)C(=O)O [2] = system: T1, CC(C)(O)C(O)C(=O)O; experiment: Michaelis-Menten kinetics (Km), DNPH assay; format: biochemical, Staphylococcus aureus; details: [4Fe-4S] cluster, Mg2+ active site

Row | Substance | Km (CC(C)(O)C(O)C(=O)O [1]) | kcat (CC(C)(O)C(O)C(=O)O [1]) | kcat/Km (CC(C)(O)C(O)C(=O)O [1]) | Km (CC(C)(O)C(O)C(=O)O [2]) | kcat (CC(C)(O)C(O)C(=O)O [2]) | kcat/Km (CC(C)(O)C(O)C(=O)O [2])
1 | CjDHAD (dihydroxy-acid dehydratase) (Campylobacter jejuni subsp. jejuni NCTC 11168 = ATCC 700819) | 820 µM | 6.5 s⁻¹ | 7930 M⁻¹ s⁻¹ | – | – | –
2 | SaDHAD (dihydroxy-acid dehydratase) (Staphylococcus aureus subsp. aureus NCTC 8325) | – | – | – | 1100 µM | 2.1 s⁻¹ | 1910 M⁻¹ s⁻¹
